In assay [1] the target is T1, HuTL1A mutant H118A (mutant number 4137) (human, UniProt O95150 57-251, limits assumed).
T1 construct: whole entry named
T1 chain: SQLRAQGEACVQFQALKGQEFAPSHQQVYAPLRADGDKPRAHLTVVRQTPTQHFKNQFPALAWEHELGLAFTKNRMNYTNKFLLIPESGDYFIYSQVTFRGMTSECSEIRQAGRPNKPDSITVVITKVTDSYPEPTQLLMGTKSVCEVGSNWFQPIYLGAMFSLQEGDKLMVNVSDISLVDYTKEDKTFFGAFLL
Nature of the assay: BLI (Gator) on antigen mutant H118A.

The target in assay [2] is T2, human TL1A (HuTL1A) (human, UniProt O95150 57-251, limits assumed, biotin-labelled in some assays (site not stated)).
T2 construct: Expressed in EXPI-293 cells and purified by Ni-NTA (His-tag); Described as a trimeric antigen; also called TL1A antigen; WT
T2 sequence: T1 chain with A62H
In words: ELISA: biotin-HuTL1A on streptavidin plate, antibody diluted at pH 7.4, HRP-anti-human Fc, OD450. How it is done: (§1) Corresponding antibodies were added to specific wells, and the antibodies were diluted with sodium dihydrogen phosphate-citrate buffer at pH 7.4, pH 6.0, pH 5.8, or pH 5.6. Binding assay was carried out at room temperature for 30 minutes. After the incubation, the excess antibodies were removed and the wells were washed by PBST. HRP-anti-Human Fc (Sino Biological) was then added into each well and incubated for 30 minutes to detect the bound antibody. The substrate TMB was finally added to develop color for 5-10 minutes. The color development reaction was terminated with 1M sulfuric acid. OD450 nm was recorded on a microplate reader, and the data were processed and fitted by 4 parameter logistic regression.
For orientation: ELISA stands for enzyme-linked immunosorbent assay.

Assay [3] has as its target T3, HuTL1A mutant Y238A (mutant number 4134) (human, UniProt O95150 57-251, limits assumed).
T3 construct: whole entry named
T3 chain: T1 chain with A62H, Y182A
In words: BLI (Gator) on antigen mutant Y238A.

Assay [4] deals with T2, human TL1A (HuTL1A). In words: BLI (Gator) on WT antigen (3907).
In assay [5] the target is T4, HuTL1A mutant T105A (mutant number 4140) (human, UniProt O95150 57-251, limits assumed).
T4 construct: whole entry named
T4 chain: T1 chain with T49A, A62H
In words: BLI (Gator) on antigen mutant T105A.

The target in assay [6] is T5, HuTL1A mutant K240A (mutant number 4136) (human, UniProt O95150 57-251, limits assumed).
T5 construct: whole entry named
T5 chain: T1 chain with A62H, K184A
Nature of the assay: BLI (Gator) on antigen mutant K240A.

For assay [7], the target named is T6, HuTL1A mutant V102A (mutant number 4139) (human, UniProt O95150 57-251, limits assumed).
T6 construct: whole entry named
T6 chain: T1 chain with V46A, A62H
Nature of the assay: BLI (Gator) on antigen mutant V102A.

The target of assay [8] is T7, HuTL1A mutant S234A (mutant number 4133) (human, UniProt O95150 57-251, limits assumed).
T7 construct: whole entry named
T7 chain: T1 chain with A62H, S178A
In words: BLI (Gator) on antigen mutant S234A.

Assay [9] has as its target T2, human TL1A (HuTL1A). In words: BLI (Gator), His-tagged TL1A on anti-His probe, pH 7.4. How it is done:
(§2) Then a serial dilutions of single-arm M701 antibodies and control antibodies were added.

For assay [10], the target named is T8, cynomolgus monkey/rhesus monkey TL1A (cynomolgus monkey/rhesus monkey).
T8 construct: also called Cynomolgus/rhesus monkey TL1A
The assay is described as above. How it is done: as §2

Assay [11] has as its target T9, HuTL1A mutant T239A (mutant number 4135) (human, UniProt O95150 57-251, limits assumed).
T9 construct: whole entry named
T9 chain: T1 chain with A62H, T183A
In words: BLI (Gator) on antigen mutant T239A.

For assay [12], the target named is T10, HuTL1A mutant E120A (mutant number 4138) (human, UniProt O95150 57-251, limits assumed).
T10 construct: whole entry named
T10 chain: T1 chain with A62H, E64A
Nature of the assay: BLI (Gator) on antigen mutant E120A.

Assay [13] deals with T2, human TL1A (HuTL1A). In words: ELISA: biotin-HuTL1A on streptavidin plate, antibody diluted at pH 7.4, HRP-anti-human Fc, OD450. How it is done:
as §1
This is another data set of the same source.

Assay [14] has as its target T2, human TL1A (HuTL1A). Nature of the assay: BLI (Gator), biotin-HuTL1A on SA probe, pH 7.4; BLI (Gator), pH 7.4. How it is done:
The binding kinetics between monoclonal antibodies and antigens was measured using Gator, a label-free biomolecule interaction analyzer based on the principle of biolayer interference (BLI). […] Then a serial dilutions of single-arm M701 antibodies and control antibodies were added. The antibodies interacted with the antigen captured by the SA probe, and the interaction was analyzed by detecting the signal change of the reflection interference spectrum of the probe surface, and finally the binding kinetics constants of the antibodies were calculated. The kinetic constants of antigen and antibodies were measured at pH 7.4 and 5.6 in sodium dihydrogen phosphate-citrate buffer.

One may read the Kd as the concentration at which binding is half-saturated. For orientation: EC50 (read off the curve) means the concentration needed to bring the measured effect to its halfway point. One may read the koff as the rate constant with which the complex falls apart. Broadly, the kon is a measure of how fast the partners come together.

Changes are numbered by the printed parent chain. Read-outs that look alike come from different tables or passages of the source.

B1: single-arm antibody M701-3973 (antibody, human IgG1, kappa, L234A L235A)
heavy: ELQLQESGPGLVKPSETLSLTCAVSGVSFSDYHWAWIRQPPGKGLEWIGDINHRGHTNYNPSLKSRVTVSIDTSKNQFSLKLSSVTAADTAVYFCARDFPNFIFDFWGQGTLVTVSSASTKGPSVFPLAPSSKSTSGGTAALGCLVKDYFPEPVTVSWNSGALTSGVHTFPAVLQSSGLYSLSSVVTVPSSSLGTQTYICNVNHKPSNTKVDKKVEPKSCDKTHTCPPCPAPEAAGGPSVFLFPPKPKDTLMISRTPEVTCVVVDVSHEDPEVKFNWYVDGVEVHNAKTKPREEQYNSTYRVVSVLTVLHQDWLNGKEYKCKVSNKALGAPIEKTISKAKGQPREPQVYTLPPCREEMTKNQVSLWCLVKGFYPSDIAVEWESNGQPENNYKTTPPVLDSDGSFFLYSKLTVDKSRWQQGNVFSCSVMHEALHNHYTQKSLSLSPG
light: not shown
chain: DKTHTCPPCPAPEAAGGPSVFLFPPKPKDTLMISRTPEVTCVVVDVSHEDPEVKFNWYVDGVEVHNAKTKPREEQYNSTYRVVSVLTVLHQDWLNGKEYKCKVSNKALGAPIEKTISKAKGQPREPQVCTLPPSREEMTKNQVSLSCAVKGFYPSDIAVEWESNGQPENNYKTTPPVLDSDGSFFLVSKLTVDKSRWQQGNVFSCSVMHEALHNHYTQKSLSLSPG
B1: the Kd in assay [1] came out at 7.73 nM; in assay [3], 12.1 µM; in assay [4] it was 8.39 nM; in [5], 6.65 nM; in assay [6] it was 8.15 nM; in assay [7] it was 5.85 µM. The dissociation constant (Kd) in assay [8] was found to be 7.82 nM; in [9], 5.92 nM; in [10], 6.09 nM; in [11] it was 11.6 nM; in assay [12] it was 17.3 nM; in assay [14], 5.62 nM. In addition, the concentration giving a half-maximal response (EC50 (read off the curve)) in [2] and in assay [13] was ~0.6 nM in each case. Further, the off-rate constant (koff) is 0.00353 s⁻¹ in [9], 0.00375 s⁻¹ in [10] and 0.00214 s⁻¹ in [14]. Further, the kon in assay [9] is 596000 M⁻¹ s⁻¹; in [10], 616000 M⁻¹ s⁻¹; in assay [14] it was 381000 M⁻¹ s⁻¹.

These data come from patent US20250313644A1 (FUTUREGEN BIOPHARMACEUTICAL BEIJING, published 2025).
